The target of this experiment is T1, caspase 9 (UniProt P55211 1-416).
T1 sequence: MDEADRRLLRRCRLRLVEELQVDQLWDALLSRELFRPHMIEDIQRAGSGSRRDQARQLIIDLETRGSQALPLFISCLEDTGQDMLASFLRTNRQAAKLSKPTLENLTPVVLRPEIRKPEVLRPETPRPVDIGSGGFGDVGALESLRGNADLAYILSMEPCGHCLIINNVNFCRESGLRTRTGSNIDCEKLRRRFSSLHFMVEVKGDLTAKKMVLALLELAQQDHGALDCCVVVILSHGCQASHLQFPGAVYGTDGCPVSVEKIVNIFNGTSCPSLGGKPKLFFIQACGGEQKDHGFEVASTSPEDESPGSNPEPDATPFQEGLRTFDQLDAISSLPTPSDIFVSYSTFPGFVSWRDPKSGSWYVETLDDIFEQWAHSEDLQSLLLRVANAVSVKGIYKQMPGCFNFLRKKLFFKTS
Kind of experiment: pull-down: pUL37Smyc held by anti-myc antibody on protein G agarose beads, 35S-labelled in vitro translated protein, SDS-PAGE.

B1: pUL37Smyc (HCMV pUL37S fused at its C-terminus with a c-myc-epitope tag) (other)
chain: MSPVYVNLLGSVGLLAFWYFSYRWIQRKRLEDPLPPWLRKKKACALTRRSRHRLRRQHGVIDGENSETERSVDLVAALLAEAGEESVTEDTEREDTEEEREDEEEENEARTPEVNPIDAEGLSGLAREACEALKKALRRHRFLWQRRQRARMLQHNGPQQSHQ
notes: range 410-419; also called pUL37x1; pUL37x1myc
As to B1, the binding result is “no binding”.
